Source: the DeepSol protein solubility set

Assay: soluble on expression in E. coli; label from the status in PepcDB or PDB records

Sequence	soluble on expression in E. coli
MGHHHHHHSHMSTKVPIYLKRGSRKGKKEKLRDLLSSDMISPPLGDFRHTIHIGSGGGSDMFGDISFLQGKFHLLPGTMVEGPEEDGTFDLPFQFTRTATVVGRELPDGPSPLLKNAISLPVIGGPQALTLPTAQAPPKPPRLHLETPQPSPQEGGSVDIWRIPETGSPNSGLTPESGAEEPFLSNASSLLSLHVDLGPSILDDVLQIMDQDLDSMQIPT	not soluble
MEKPVFYLDRVGEENTEAVIGAAAKRAAELGISHIVVASTSGKTALKMAEAVKGSNIKVIGVSHQYGQKEKGEWEVGEEYRKKLEELGAVITTQSHMFSGIERSITKKFGGYSRIEVISDTLRSLFGKGFKVAIEVAIMAADSGHIPVSDDTEIIAIGGTRWGADVALVLRPAHSNDFFSLQVREIIAMPRAKEDLEHHHHHH	soluble
FRGFRYNAGVYFDRSRNKLTEFGAEEIGSYSIKREGLPYDEYYMLECIGVFADQAEINASPKQFNDNTQPGDLKYKDISGPDGKPDGVIDNYDRRTFSGRFPGFEYGINASATWKGFDLSLIGQGVADKKYYTTDWGVQPFMQGSSPNKDYIKHMWTEENPYGAKHPKLYWQDMGGGKNTRPNSYYLKDASFFRLKNLTLGYTLPRVWTEKANISKVRIYFSGDNLLTLTPYKGLDPERNGDGRDAIYPQNRIYSFGLNVEF	not soluble
MKIGYLGPKATFTEAAAALLFPSQPREPYDTIPDCIDAAAAGEIEAAVVPLENALEGSVNLTLDYLIHEQPLPIIGEIVVPIEQHLMVHPYFTPHWREVKEVYSHSHAIAQCRKFLHTVLKGAKQVPMTSTSAAAKFVSEHPHLPAAAIANRLAAEKYGLVIVQENVHDYDYNHTRFIVVSRRKEPLSPASPLYAGDKTTVVVMLPQDRPGALHQVLSAFAWRRLNLTKIESRPAKTGLGNYFFIIDIDAPMDDVLIPGAIAEIEALGCTVQLLGSYPYYFA	not soluble
LYIRGLQPGTTDQDLVKLCQPYGKIVSTKAILDKTTNKCKGYGFVDFDSPSAAQKAVTALKASGVQAQMAKQ	soluble
KMKLYNFWRSGTSHRLRIALNLKGVPYEYLAVHLGKEEHLKDAFKALNPQQLVPALDTGAQVLIQSPAIIEWLEEQYPTPALLPADADGRQRVRALAAIVGCDIHPINNRRILEYLRKTFGADEAAINAWCGTWISAGFDAYEALLAVDPKRGRYSFGDTPTLADCYLVPQVESARRFQVDLTPYPLIRAVDAACGELDAFRRAAPAAQPDSA	soluble
MVKVVVDASNVAYSTKNENSQPQMSNILAAVKSLEESGDEFVIIADASLRHDIDDKEKFEKLLESENVEEVPAGNDADHFILNIAHNEKAKILSNDKFRDYAAEFKNINSMRIPFVIENGRVTFGKPKSPKKDKNILQHISDEIIKELNFKRWEVYTGKEGLEISPLNIAKQAIIRIDNDNDTSSKLEKVFSKIPMFNKIVDMVDDVEVAAPYVIFVLVHPKDYKLAVKNAGNISVTVADRLRLEKKPLIAVRNDLFTRPGTFELNIMLADEVTEHAPYNVLVRVSTHDEVFIKKNSRNIASTIAGRLGSWKFPFVSVKPDMLLEKPGDFEIELEKGGSLDGLEHHHHHH	soluble
MSLTGELHPIFNADALGASHRLHAHTHGDGTKIVGYYNKHLRLGRFTEQTYKSWHAEVDAKASSILNGSGSLLAFYGDHIIEVVDREGKKITLTVNGGIKQVLWHPLAYLDSCLVVLTGQETIEIYELNEPRYEKPTLVLNEPTSQLGISSRVIDITNIAFAPDGLSLYLFSTSEGGDVHVICPLLPSRIKADRAKWARQWNKATALYSTLTKDTPDDAKVATIEYLEFVTQLLQAIEKNGSDGELVIPEHRRRTISQGPYNIHGFPEKLYSAVGTKLTVVPLGESEAHLLLLSFDDSTNILLFPSTEVLMSWTKDLKNAYTLMLVEEFTATGTAFATCDGVAVLGIDSAQRVEIPYLQALEDCIRDCNLAALQDINFTSSICKIPGKFHSVARFNAPGNKGIILVGDHHAKIVPSTEAAKSDTETELDSQPGKEPTYTVCFPNSLEEILNTNKELQRRKHQPLPLVPPALKNEGHHHHHH	soluble
MGSAEQACGCKGARFCALCETTERVKKLRVVEDKHVNYKVFIYDHIRQIAIPTTNLNSQSSLEDIIDESTSCQSVSTDGSIEIDGLTLIHNFLSESEESKILNMIDTVEWAQSQSGRRKQDYGPKVNFKHKKVKTDTFVGMPEYADMLLNKMSEYDVKKLGNYQPFEMCNLEYEEVKKSAIEMHQDDMWIWGNRLIRYEFLFKKVLFN	soluble
MAHHHHHHMGDNGGMVLFKAIAGAIEDGEDKLEYLNLEVNELGEKTAKAMQRVLSSSTALKTLRLSYNSFGGASKYIMEGLAENKYLRSLFLSFCEIREADGAAIGTALTANSTLQHLDLSNNKLKDAGSKCIAEAMKTNEGLISLNLSCNKIADDGGKAIALFLTSNRTLRELNLRRNCMSNATGELLDDQLRGNMTLEKMNVGFNDFRYKSLIGHRTTLARNAEKNKSLIVPKLRAEIEGLSFKERDLSQAEDEIEMERRIIKDRSEQLLRRNEEARVASEKARREIADLEKNLAAVRVRFESAEEVLLRTEERVSNEMAEISGRKANMEARVQQEREKVDRLQREMDRVRRQLKQLEEAEASRLKPLFLEFGIAEADRDREAKECQYEADKLAALELQRKELEKKLGLSLPVAGGVSAPTAKKRK	not soluble
MSLNDRTTTHGETEPRSEQPGIRAAAGPGRWHDVELMAYKPDDAAPFRSVTRQVLFSDLRLGCEWRYFEVAEGGYSTLERHQHVHATMIHRGRGQCLVGDVISDVAVGDLVFIPPMTWHQFRANAGDVLGFLCLVNADRDRPQLPRPDELAVLRQNKAIASFIGAEAEGHHHHHH	soluble
MSSTAGGEVSINSGDLLLGTLSTSITKLEQQIRATQLSQKKLNSDCETMAEYLRDLSEYKQPVDLLPYVGKLNDSTIRVNNTHQKLDDLLERLTKLQRQIARETYKKKNSIKEQEPPVQPEN	not soluble
MAHHHHHHMARLKVLNVAEKPSVASSIAEILSKGRPNKIKSCSKYNPVFTFDYKIKNDIWYMYVTSVTGHLTDQKFDDRYKNWHNTDPQELFDAEITVYVEKDKKNIENNLKKYSKECNMLILWLDCDREGEHICFEVINACRITNRKLIIHRAQFSAVTEKDIIHAINNLKEPNKNLAYSVDVRREIDLRMGSIFTRFMTIRYIELVKHETSIISYGPCQFPTLGFVVNRYLDIKNFKNEYYWSIKMKYVYNNDEINPMDDENNYDDHDDEQMDSDSDESDSYYTNNDDSNNYSDETDDYYGD	not soluble
VQVGNCLQVMWLADRHSDPELYTAAKHCAKTHLAQLQNTEEFLHLPHRLLTDIISDGVPCSQNPTEAIEAWINFNKEEREAFAESLRTSLKEIGENVH	soluble
MNHKALFSGKLVFIGFGSITRATLGLLGNVQRFDVSRIVVIAPGIKGSEPFVKSGVTFIDQALTSDTMESVLGSIVGQGDFIVNLSVNVCSADVIRFAYAHDALYLDTCIEPWGNTYNSPSLTASQRSNYALRDQLRTLGAELGPGPTAVVAHGANPGLISHFLKCALSALAEQLSVAVPRHQGGIDWGNLSMKLGVKVIHIAERDTQRSTRIKSDGEFVNTWSVDGFVSEAGQPAELGWGSHEKNWPPFARHHQFGSDNAIYLDRPGACVSVKTWTPNGGPCNAMLITHNEAISIPELLTVRNEGALSYRPTVHYAYHPCDDALLSINEYTGRGWHAQDRQRIMLDEITPGGIDALGVLIMGHKLNAYWYGSILNIDEARRLAPFNNATSLQVAAGVYSGIIWAIENPDRGIVEPEQMDHQRVMEIALPFLGKFGGVLTDWTPLKTGNALFRKPDADACPWQFEHFTAALEHHHHHH	not soluble
MATGVIRGAELSPSYIIEEILGLYQNIVVLSNEEIVYGLSDRNRELFQELEYLVSLEVEDSVVQDILQKKELEPAFTEIKRFRNLYTVRLETEHAKEILSSDSPWASLEMFSFYGNYLKLVRTEYEGLRLSSGDTVFFLGSGPLPLTLIVFFRLYGVKSTGIEKDSFRANLSKKVLEKLGLSSVIKIVNGNHFSLSRKDLSLSPDTGVKALMIAAQAEPKKEIFEHLLEVMPIGGRISCRIYEKGLRKLLSGNCLFDLPEGFVEQERVQPQPPVYNTVIFFEKKRLEHHHHHH	not soluble
GSPNSPATGEKKECWSWESYLEEQKAITAPVSLFQDSQAVTHNKNGFKLGMKLEGIDPQHPSMYFILTVAEVCGYRLRLHFDGYSECHDFWVNANSPDIHPAGWFEKTGHKLQPPKGYKEEEFSWSQYLRSTRAQAAPKHLFVSQSHSPPPLGFQVGMKLEAVDRMNPSLVCVASVTDVVDSRFLVHFDNWDDTYDYWCDPSSPYIHPVGWCQKQGKPLTPPQDYPDPDNFCWEKYLEETGASAVPTWAFKVRPPHSFLVNMKLEAVDRRNPALIRVASVEDVEDHRIKIHFDGWSHGYDFWIDADHPDIHPAGWCSKTGHPLQPPLGPREPSSAVDSSGRIVTD	soluble
SDHVDLPYNLTATKIDSDVFVVTDRDFYSSNVLVAKMLDGTVVIVSSPFENLGTQTLMDWVAKTMKPKKVVAINTHFHLDGTGGNEIYKKMGAETWSSDLTKQLRLEENKKDRIKAAEFYKNEDLKRRILSSHPVPADNVFDLKQGKVFSFSNELVEVSFPGPAHSPDNVVVYFPKKKLLFGGCMIKPKELGYLGDANVKAWPDSARRLKKFDAKIVIPGHGEWGGPEMVNKTIKVAEKAVGEMRL	soluble
MLTLLRRGLLVFLAAFPLLSMAAPTPQQVVQGTVDELLSDIKANKAAYKADPQKLYATLDRILGPVVDAEGIAKSVMTVKYSRQASPEQIKRFEEVFKNSLMQFYGNALLEYDNQDIRVLPSSAKPSDDRASVNMEIRDSKGTVYPVSYTMTNLAGGWKVRNVIINGINIGKLFRDQFADTMQKNRNDLEKTIAGWGEVVAKAKETAKAEEAGAKAAALEHHHHHH	soluble
MKSSLSLLLLTSALSNFALATEIKSGGETSTTKEGANAFSMPAANLPMAKRLDFSVGNSFFRNPWVPAPASTDARDGLGPLFNTNGCQNCHIKDGRGHPPEPNDTQAVSMLVRLSIPAVTEQQKAIYAVNGVVPEPTYGGQLQDFSLPDQKPEGRIHITYDEVVVTFADGTPVALRKPNLKILDLAYGEMHPDVQMSARVAPPMIGLGLLEAIPDATLLQWADPEDRDGDGISGRVNQVRDVRTGEMAIGRFGWKAGQPNIMQQNAAAFNGDLGLTSHLFPQENCTEKQTLCRDLPNGGSPEVSDNILDFVEFYAQHLAVPVRRNVQDPQVQLGEKLFAQAGCQSCHKTNVLTQELAERPALSKQRIQPYTDLLLHDMGEGLSDGRPEALASAREWRTAPLWGIGYTQEVNGHTYFLHDGRARNVLEAVLWHGGEAQASRDKVLQFDKAQREALVAFLNSL	not soluble
MGSDKIHHHHHHMSYKVINVITAIDYIEEHLSEKLDLDIVANAVHYSKYHLHRTFTTSVGLTMHDYIKRRKLTEAAKLLVFSKKPIIEIALIAGYESQQAFTSIFKAMYKKSPNKYRKEQEFYPLQLRFVLKKDNLFLKNVLELEKEIKLASMSDIPLWMNLVRLVIDGFPNLQEEEYIYQLEQYILEERALILKLNNVAIANMVFNRETRSIDFFGIHPQYRNSDIAQVFLKKVIEDFLIDTDISITTFREGDKADTGHRDMIKKLGFAEAELLVEFGYPTQKFILPLS	not soluble
MGSDKIHHHHHHMTTVLPLDPARYTPHLLHSAERMWPETNCYVDLWIEVLCVLGLPPEAMLGFTLTQDFEGDQFTFFKVPLEDLEALYGIRVTELAIFDRAEAHVAQQISRGRLCLVEMDSYFMPDTAGVGYRQHHGKTTVGVNRLDLAGRSMDYFHNGGFFRLEAEDFDGIWQLAAPETAPFLPYTEFAKFPETRPDETHLRAVAKRLFAFHFARRPQGNPFAGFAEVFPAQVEAIAERPFGYFHTYAFNTLRQFGANFELLASHLKWLAADDRYTNEIAEALRISELAKTVQFQLARAVTRKKFDPLKAALDPAIDAWDRLMTGLADKMA	not soluble
